One experiment has as its target recHopQ (Helicobacter pylori). Briefly: BLI. On the technique in general: In BLI a coated tip is dipped into the sample, and binding shifts an interference pattern.
The target of experiment [1] is T1, human CEACAM1-Fc fusion protein (UniProt P13688 35-428).
T1 chain: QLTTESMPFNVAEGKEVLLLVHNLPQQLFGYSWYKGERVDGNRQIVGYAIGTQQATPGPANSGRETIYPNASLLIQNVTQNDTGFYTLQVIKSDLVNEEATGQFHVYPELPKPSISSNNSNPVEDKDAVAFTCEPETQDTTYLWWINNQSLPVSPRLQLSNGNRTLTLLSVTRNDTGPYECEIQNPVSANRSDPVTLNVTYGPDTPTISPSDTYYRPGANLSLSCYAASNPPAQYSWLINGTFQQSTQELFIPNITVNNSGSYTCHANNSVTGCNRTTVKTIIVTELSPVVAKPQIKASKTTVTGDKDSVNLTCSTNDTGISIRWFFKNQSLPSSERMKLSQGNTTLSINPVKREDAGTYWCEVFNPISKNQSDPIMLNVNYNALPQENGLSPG
As to the kind of experiment: BLI.

The target of experiment [2] is T1, human CEACAM1-Fc fusion protein. Briefly: ELISA.
In a further experiment the target is CC1-N-Fc. As to the kind of experiment: ELISA. Background: An ELISA detects its analyte on a solid surface through an enzyme-linked reagent.

B1: CEACAM1-Fc (Fc fusion)
chain: T1 chain
As a reminder, the Kd is the free concentration of one partner at which half of the binding sites on the other are occupied at equilibrium, for simple one-to-one binding. A low value points to higher affinity. As to B1, in the experiment with recHopQ, binding was characterised by a dissociation constant (Kd) of 183 nM.

B2: CC1/3/5-Sab (antibody, V domains shown)
VH: EVQLQQSGPELVKPGTSVKMSCKASGYTFTTYVMHWVQQKPGQGLDWIGFFNPYNDGTKYNEKFKGKATLTSDKSSSTAYMELSSLTSEDSAVYYCARWAYDGSYAYWGQGTTLTVSS
VL: DIQMTQSSSYLSVFLGGRVTITCKASDHINNWLAWYQQKPGNAPRLLISGATSLETGVPSRFSGSGSGKDYTLSIISLQTEDVATYYCQQYWRTPFTFGSGTKLEIK
By IC50 is commonly meant the point on the concentration scale where inhibition reaches its midpoint. Turning to B2, binding in experiment [1] was characterised by a dissociation constant (Kd) of 54 nM. In addition, in experiment [2], the IC50 was 0.146 nM.

B3: mAb CC1/3/5-Sab (antibody, V domains shown)
VH: B2 VH
VL: B2 VL
B3: in the experiment with CC1-N-Fc, the IC50 came to 0.107 nM.
